The data set can be described thus: soluble on expression in E. coli; label from the status in PepcDB or PDB records.
“MSLSVSFIFLLVASIGAVVADSENVLVLTESNFEETINGNEFVLVKFYAPWCVHCKSLAPKYDEAADLLKEEGSDIKLAKVDATENQALASKFEVRGYPTILYFKSGKPTKYTGGRATAQIVDWVKKKSGPTVTTVESVEQLEELKGKTRVVVLGYFKDAKSDAATIYNEVADSVDDAFFAVAGSAEVAAAASLNEDGVALIRTDGDDSETSTIAEAEITNTIALKQWLHAYKLSAVTEFTHESAQEIVGGDLKKFHFLIIRKSDSSFDETIAKFTEVAKKFRAKIVFVLLDVDVEENARILEFLGVDAKNTPANRIVSLADQVEKFKPQEGEDFEAFTNSYLEGKSAQDLKAQDLPEDWNALPVKVLVASNFNEIALDETKTVFVKFYAPWCGHCKQLVPVWDELAEKYESNPNVVIAKLDATLNELADVKVNSFPTLKLWPAGSSTPVDYDGDRNLEKFEEFVNKYAGSASESETASQDHEEL”: the “soluble on expression in E. coli” value is “not soluble”. Take “MGSDKIHHHHHHMPSERASSFDIMLWVLSGCSELLYGTQALPLTGKVDRIFGPAREPRDVRVLNYLELADRLDRSGIGTAVDHQRAALSETDIEVETTPWQEGHPAWALGGNIAFNDPMFREFDIAHCNMIGPGSVAVARYAAQADIPLVLHAHVTREDFRDSFRGSNLIAPVLGRYLRWFYSQADLVLCPSEYTKGILESYPVDAPIRPMTNGVDIDALAGHEDMREDYRRRYDLDGMVVFAVGNVFERKGLTTFCELAQETEHDFAWFGPYDAGPQASKTVSRWVNNPPENVTFTGWVEDIRGAFGAGDVYLFPTKAENQGIAVLEAMACGKAVVLSDIPVFREYYEDGHDCLICADEAEFREALERLAENPDLRERLGENARETAREHSLDRVSRRLVETYEELA”: the “soluble on expression in E. coli” value is “not soluble”. To “MGSDKIHHHHHHMKKFLENSIHQAIKACFFFLGKLPKKKLFIFESFHGKQYSDNPRAIFEYIRDNCPEYQCIWAVKKGYEMPFVEENVPFVKRLSWRWLWLMPRAQYWVFNTRMPAWMYKNQTTIYIQTWHGTPLKKLGLDIETVKMPEHETESYKLEVIQEAKRWDYLISPNAYSTRVFRQAFHYEGEILEIGYPRNDLLVCENKDKIAFSVRNQLGLAANKKIILYAPTWRDDESIRKGAYRFTNHLPVEQLLEIDSSIVILTRLHYLIAESFDISAFGSRVIDVSSYPDINQLYLIADLLITDYSSVMFDFALTKKPMLFFMYDKEKYQNSTRGFYFDPTAILPGKIVTDTDSLVTSVKNVLFSKTEQEQRLYVQFFREFCLENQDATRQLISEILKR” belongs “not soluble”. As for “MGSRDDEYDYLFKVVLIGDSGVGKSNLLSRFTRNEFNLESKSTIGVEFATRSISVEGKTVKAQIWDTAGQERYRAITSAYYRGAVGALLVYDIAKHVTYENVERWLKELRDHADQNIVIMLVGNKSDLRHLRAVPTDEAKIYAERNQLSFIETSALDSTNVEAAFTNILTEIYKSVSNKHVGTDRQGYGGGSGTIIPSPASDPPKKQCCIP”, the entry is “not soluble”. For “MALRFITAEEAAEFVHHNDNVGFSGFTPAGNPKVVPAAIAKRAIAAHEKGNPFKIGMFTGASTGARLDGVLAQADAVKFRTPYQSNKDLRNLINNGSTSYFDLHLSTLAQDLRYGFYGKVDVAIIEVADVTEDGKILPTTGVGILPTICRLADRIIVELNDKHPKEIMGMHDLCEPLDPPARRELPVYTPSDRIGKPYVQVDPAKIVGVVRTSEPNDESDFAPLDPVTQAIGDNVAAFLVSEMKAGRIPKDFLPLQSGVGNVANAVLGALGDNPDIPAFNMYTEVIQDAVIALMKKGRIKFASGCSLSVSRSVIQDIYANLDFFKDKILLRPQEYSNNPEIVRRLGVITINTALEADIFGNINSTHVSGTRMMNGIGGSGDFTRNSYVSIFTTPSVMKDGKISSFVPMVAHHDHSEHSVKVIISEWGVADLRGKNPRERAHEIIDKCVHPDYRPLLRQYLELGVKGQTPQNLDCCFAFHQELAKSGDMRNVRWEDYMK”, the “soluble on expression in E. coli” value was “not soluble”.

For “PSQDPRTPGGSEWRETGPQFRCLPPVPADMVFLVDGSWSIGHSHFQQVKDFLASVIAPFEIGPDKVQVGLTQYSGDAQTEWDLNSLSTKEQVLAAVRRLRYKGGNTFTGLALTHVLGQNLQPAAGLRPEAAKVVILVTDGKSQDDVHTAARVLKDLGVNVFAVGVKNADEAELRLLASPPRDITVHSVLDFLQLGALAGLLSRLICQRLQGGSPRQGPAAAPALDTLPAPTSLVLSQVTSSSIRLSWTPAPRHPLKYLIVWRASRGGTPREVVVEGPAASTELHNLASRTEYLVSVFPIYEGGVGEGLRGLVTTAPLPPPRALTLAAVTPRTVHLTWQPSAGATHYLVRCSPASPKGEEEEREVQVGRPEVLLDGLEPGRDYEVSVQSLRGPEGSEARGIRARTPTLAPPRHLGFSDVSHDAARVFWEGAPRPVRLVRVTYVSSEGGHSGQTEAPGNATSAMLGPLSSSTTYTVRVTCLYPGGGSSTLTGRVTTKKAPSPSQLSMTELPGDAVQLAWVAAAPSGVLVYQITWTPLGEGKAHEISVPGNLGTAVLPGLGRHTEYDVTILAYYRDGARSDPVSLRYTPSTVSRSPPSNLALASETPDSLQVSWTPPLGRVLHYWLTYAPASGLGPEKSVSVPGARSHVTLPDLQAATKYRVLVSAIYAAGRSEAVSATGQTACPALRPDGSLPGFDLMVAFSLVEKAYASIRGVAMEPSAFGGTPTFTLFKDAQLTRRVSDVYPAPLPPEHTIVFLVRLLPETPREAFALWQMTAEDFQPLLGVLLDGDVGPASPPAVRRSRGREAPEPWEAFRGSPASRPGPQHPLGGRQVSRAGGCGPH”, the “soluble on expression in E. coli” value is “soluble”. To “MGSDKIHHHHHHMEVASATNNPVQNPAGALAAPGNDAASLKNEFMTLMIAQIKNQDPTKPLNSAEYISQLAQFSQVESLEGMRKNQSNQMIMMENLGIVQSASLIGKNAMVPVSEFKLDGETVEGKVYLENAVEALDIEIVNSEGQVVHTMQLGAQAVGDIRFAIDPDELGLEKGQYEIKAKATLGENSLVAPTYIKAPIERIHFSSASGMMMAEMGHGVGVISVLNISEVS” belongs “not soluble”; to “MGSDKIHHHHHHMGFKEDFMGNAPGACPFLHLVERSTSDVLEQAEALPFWSQDYTQLSKGAFSGSVTSVSCDGLQIFTETMNQAVDQIASAPVDSYVMGLPTLVDGESTWGLLPITTNSLITLEKNAELYFKTSNISEITAAVIPAQRLETYAAEVEWIDLSKVMEGLKPVEMLHPDIAQQLLSALQGGIQYKADIADNIHAHQMWRNFEDDLLSTCLHTLLHVRGNIHPHFDQRLPRYLVNRVRDYTLSNSALPLTIGELCKSLRVSRRTLNHAFIRVLGITPVAYIRNLRLHRVRFEMQQSPHEVISIAHLATKWGFWHLSLFSRYYRELFGECPIDTLQRARLESKRP”, “not soluble”. As for “MSLDENKPVLVLGATGKQGGSAARYLLERGWTVRAFVRDPGAPKAKELRELGASLHTGDLEDAGSVRAAMKGAYGVFSIQTPMTPAGVEGEERQGKICADAARDLGVQHYVHSSVGGAERPEGVNWRLSKLAIEQRIQENALRFTFLRPSYFMENLNHDMSPLVMEDGVLTFRRGLGPANTLQMISGPDIGYFAADAFDDPDTFGGAKIELAGDELTGEQIAAAFGRHTGLPARFVSVPIPELHRTGFEWQAISYTWLNGIGYHADIPTLRARFPQLLTLDQWLARTGWTPRDPAEGHHHHHH”, the “soluble on expression in E. coli” value was “soluble”.

Consider “SANSGEGKVVCVTGASGYIASWLVKFLLSRGYTVKASVRDPSDPKKTQHLVSLEGAKERLHLFKADLLEQGSFDSAIDGCHGVFHTASPFFNDAKDPQAELIDPAVKGTLNVLNSCAKASSVKRVVVTSSMAAVGYNGKPRTPDVTVDETWFSDPELCEASKMWYVLSKTLAEDAAWKLAKEKGLDIVTINPAMVIGPLLQPTLNTSAAAILNLINGAKTFPNLSFGWVNVKDVANAHIQAFEVPSANGRYCLVERVVHHSEIVNILRELYPNLPLPERCVDENPYVPTYQVSKDKTRSLGIDYIPLKVSIKETVESLKEKGFAQF”, for which the “soluble on expression in E. coli” value is reported as “soluble”. As to “MSLIAVKPKKGHLLVAEPSITGDLSFNRSVVLLADHNCEGSVGFILNKPLGYTINDLIPEISARFKVYNGGPIEQDNLYFIHNIPQLIPNSIEIAEGIYWGGCFDSTRDLINQGKITQNNIRFFLGYSGWDAAQLQEELESNSWIISENNLHNKIIGKSSTDLWREKIKEQGGDYLIWSNAPENPILNEGHHHHHH”, the “soluble on expression in E. coli” value is given as “soluble”. For the sequence “MGSDKIHHHHHHMINRELYMEQITPFIDKPFVKVITGIRRCGKSVVLRLIREELLRRGVSEDYIIYMNFESFEWIDMKEAKALYAHIREATKASGKYYILLDEIQEVTDWEKAVNAFLVDLDVDIYVTGSNSRLLSSEFSTYLAGRYVAFHIMTLSFREYLLFHDLPLTISVSDRKTEFLKYLRMGGFPAIHTANYDYNAIYKIVYDIYSSVILRDTVQRHSIRNVEMLERVVKFVFDNIGNKLNAKNIADYFKSQQRKVDINTIYNYLNALDSAFVIQRIPRYDIKGKEILQTNEKYFVSDLSLIYSVMGYRDRLIGGMLENLVCMELKRRGYEVYVGKQDEKEVDFVAIRREEKIYVQVTYQLGLQATIDREFAPLLAIDDHYPKYVVSMDDLWQDNIEGVKHRHIADFLLDEW”, the “soluble on expression in E. coli” value is given as “not soluble”. With “MLKGKKILLCVTGGIAVFKAAALTSKLTQAGAIVKVMMSESAVKFVTPLTFQALSRHDVYTDTFDEKDSAVIAHIDLADWADVVLVAPATANCIGKLANGIADDMITTTLLATTAPVWIAPAMNVHMYENKIVQKNMMTLKTLGYTFIEPGEGFLACGYVAKGRLEEPEAIIARLEEAFSEQKPLQGKRILITAGPTREKIDPVRFMTNFSSGKMGYAIAEVAVNLGAEVILVSGPTALNPPLHVTTVQVESAQDMLEAVIQHYQNVDVVIKTAAVADYRPKYVHDNKMKKKNGDAVIELERTVDILKTLGEMKDKQLLIGFAAETTNVEEYATKKLREKNANMIVANDVKAQGAGFGTDTNIVTMYRKDGEVIELPLLTKKEVAREILKQIEMMLEDDRL”, the “soluble on expression in E. coli” value is given as “soluble”. With “GKDDDNVETGAFDPSKPVAISDFTPKEGGAYQKLLIYGENFGTDVSKVKVKIGGKDAIVINVKSTYVYCFVPSGAFSGEIEITVGEGENAVTTTASTTFSYEKKMVVGTLCGYRNNRDDQGWRDGPFDGPEGVKCCGFSDNGRLAFDPLNKDHLYICYDGHKAIQLIDLKNRMLSSPLNINTIPTNRIRSIAFNKKIEGYADEAEYMIVAIDYDGKGDESPSVYIIKRNADGTFDDRSDIQLIAAYKQCNGATIHPINGELYFNSYEKGQVFRLDLVDYFKTIKNGGSWDPIVKNNPNTFKQLFTIADPSWEFQIFIHPTGKYAYFGVINNHYFMRSDYDEIKKEFITPYNFVGGYKQSGYRDDVGTEARMNNPCQGVFVKNPDYTGEEEYDFYFVDRLNFCVRKVTPEGIVSTYAGRGASTSLADGNQWGTDDGDLREVARFRDVSGLVYDDVKEMFYVHDQVGHTIRTISMEQEENVAGDENIPEDESTVESNE”, the “soluble on expression in E. coli” value was “soluble”. As for “MKLVKLSLVAALAAGAFSAANATPLEEAIKDVDVSGVLRYRYDTGNFDKNFVNNSNLNNSKQDHKYRAQVNFSAAIADNFKAFVQFDYNAADGGYGANGIKNDQKGLFVRQLYLTYTNEDVATSVIAGKQQLNLIWTDNAIDGLVGTGVKVVNNSIDGLTLAAFAVDSFMAAEQGADLLEHSNISTTSNQAPFKVDSVGNLYGAAAVGSYDLAGGQFNPQLWLAYWDQVAFFYAVDAAYSTTIFDGINWTLEGAYLGNSLDSELDDKTHANGNLFALKGSIEVNGWDASLGGLYYGDKEKASTVVIEDQGNLGSLLAGEEIFYTTGSRLNGDTGRNIFGYVTGGYTFNETVRVGADFVYGGTKTEAANHLGGGKKLEAVARVDYKYSPKLNFSAFYSYVNLDQGVNTNESADHSTVRLQALYKF”, the “soluble on expression in E. coli” value is given as “soluble”.

Values taken from the DeepSol protein solubility set.
